According to patent US20050053913A1 (Johns Hopkins, published 2005):

Target: T1, GAL4-DB (amino acids 1-147) expressed alone (yeast, UniProt P04386 1-147)
T1 construct: range 1-147; Negative control, not fused to another polypeptide; also called pPC97
Assay: yeast reporter SPAL5:URA3, growth on Sc-ura and 5-FOA
Excerpt: In this example, we employed the SPAL5:URA3 allele, which carries 5 GBSs.

T1 sequence (P04386 1-147 limits assumed): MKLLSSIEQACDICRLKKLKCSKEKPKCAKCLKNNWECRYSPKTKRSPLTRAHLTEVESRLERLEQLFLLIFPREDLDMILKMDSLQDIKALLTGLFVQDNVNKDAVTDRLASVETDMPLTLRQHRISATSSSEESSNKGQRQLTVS

B1: GAL4-AD (amino acids 768-881) expressed alone (other, yeast, UniProt P04386 768-881, looked up)
chain: ANFNQSGNIADSSLSFTFTNSSNGPNLITTQTNSQALSQPIASSNVHDNFMNNEITASKIDDGNNSKPLSPGWTDQTAYNAFGITTGMFNTTTMDDVYNYLFDDEDTPPNPKKE
notes: range 768-881; Negative control, not fused to another polypeptide; also called AD empty (pPC86); pPC86
binding result: no binding
